Patent US20250076311A1 (Chugai, published 2025)

Assays:
[1] = target: T1, cynomolgus monkey FcγRIIIaS extracellular domain with C-terminal His-tag (cynomolgus monkey, UniProt Q8SPW2 21-206 at identity 1.00)); assay: SPR, KD(SG1)/KD(variant)
T1 construct: also called cyno FcgRIIIaS; cynoFcγRIIIaS
T1 chain: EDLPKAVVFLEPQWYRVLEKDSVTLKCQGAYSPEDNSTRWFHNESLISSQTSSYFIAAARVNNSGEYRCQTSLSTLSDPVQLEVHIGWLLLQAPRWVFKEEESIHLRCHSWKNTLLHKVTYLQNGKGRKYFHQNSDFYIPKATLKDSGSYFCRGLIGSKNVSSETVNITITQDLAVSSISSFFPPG

[2] = target: T1, cynomolgus monkey FcγRIIIaS …; assay: SPR, KD(parent SG1)/KD(variant)
[3] = target: T2, human FcγRIIaH extracellular domain with C-terminal His-tag (human, UniProt P12318 34-217); assay: SPR, KD(parent SG1)/KD(variant)
T2 construct: also called human FcgRIIaH; FcγRIIa (type H)
T2 sequence: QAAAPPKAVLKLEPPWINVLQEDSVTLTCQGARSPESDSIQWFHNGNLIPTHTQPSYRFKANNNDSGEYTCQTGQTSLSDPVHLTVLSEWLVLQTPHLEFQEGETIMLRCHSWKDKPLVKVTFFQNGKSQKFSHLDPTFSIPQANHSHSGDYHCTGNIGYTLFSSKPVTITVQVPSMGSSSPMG

[4] = target: T3, human FcγRIIb extracellular domain with C-terminal His-tag (human, UniProt P31994 43-217); assay: SPR, KD(parent SG1)/KD(variant)
T3 construct: also called human FcgRIIb
T3 sequence: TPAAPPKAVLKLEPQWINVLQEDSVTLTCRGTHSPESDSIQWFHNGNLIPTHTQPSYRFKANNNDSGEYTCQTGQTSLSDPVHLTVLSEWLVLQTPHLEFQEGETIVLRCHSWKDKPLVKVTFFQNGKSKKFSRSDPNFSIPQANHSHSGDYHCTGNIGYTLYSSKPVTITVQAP

[5] = target: T4, cynomolgus monkey FcγRIIIaS extracellular domain with C-terminal His-tag (cynomolgus monkey, UniProt A3RFZ7 21-206 (rhesus entry)); assay: SPR (BIACORE), antibody captured, FcgR analyte
T4 construct: also called cyno FcgRIIIaS; cynoFcγRIIIaS; not shown: His-tag added to the C-terminus

[6] = target: T5, cynomolgus monkey FcγRIIb extracellular domain with C-terminal His-tag (cynomolgus monkey); assay: SPR (BIACORE), antibody captured, FcgR analyte
T5 construct: also called cyno FcgRIIb; cynoFcγRIIb; not shown: His-tag added to the C-terminus
T5 chain: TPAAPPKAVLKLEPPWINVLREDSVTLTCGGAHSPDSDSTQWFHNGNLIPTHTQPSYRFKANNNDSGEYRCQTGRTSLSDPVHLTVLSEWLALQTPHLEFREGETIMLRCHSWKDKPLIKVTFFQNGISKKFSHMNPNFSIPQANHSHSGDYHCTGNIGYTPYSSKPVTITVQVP

[7] = target: T6, cynomolgus monkey FcγRIIa3 extracellular domain with C-terminal His-tag (cynomolgus monkey); assay: SPR (BIACORE), antibody captured, FcgR analyte
T6 construct: also called cyno FcgRIIa3; cynoFcγRIIa3; not shown: His-tag added to the C-terminus
T6 chain: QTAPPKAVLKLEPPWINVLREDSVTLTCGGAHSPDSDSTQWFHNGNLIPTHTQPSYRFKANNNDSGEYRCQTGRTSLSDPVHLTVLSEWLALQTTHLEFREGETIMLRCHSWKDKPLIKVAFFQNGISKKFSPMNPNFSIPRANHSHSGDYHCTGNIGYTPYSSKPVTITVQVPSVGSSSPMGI

| Binder | KD fold (SG1 = 1) [1] | KD fold (SG1 = 1) [2] | KD fold (SG1 = 1) [3] | KD fold (SG1 = 1) [4] | further results |
| --- | --- | --- | --- | --- | --- |
| M103205H795-MY536/M103202L889-SK1 (antibody, human IgG1, kappa, name in EU numbering, copies: 2 + 2) heavy: QVTLKESGPVLVKPTETLTLTCTVSGIDLSHDDISWVRQAPGKGLEWVGIISYAGSTYYASWAKGRLTISKDTSKNQVVLTMTNMDPVDTATYYCARGVPAYSHGGDLWGQGTLVTVSSASTKGPSVFPLAPSSKSTSGGTAALGCLVKDYFPEPVTVSWNSGALTSGVHTFPAVLQSSGLYSLSSVVTVPSSSLGTQTYICNVNHKPSNTKVDKKVEPKSCDKTHTCPPCPGPEWLTGPVVFLFPPKPKDTLMISRTPEVTCVVVDVSDEDPEVKFNWYVDGVEVHNAKTKPREEQYNSTYRVVSVLTVLHQDWLNGKEYKCKVSNKALPKPIEKTISKAKGQPREPQVYTLPPSREEMTKNQVSLTCLVKGFYPSDIAVEWESNGQPENNYKTTPPVLDSDGSFFLYSKLTVDKSRWQQGNVFSCSVMHEALHNHYTQKSLSLSP light: DIVMTQSPATLSLSPGERATLSCTSSQSVYHANWLSWFQQKPGQPPKLLIYWASTLAYGVPSRFSGSGSGTDFTLTISSLQPEDAATYYCAGGYGGGRYAFGQGTKVEIKRTVAAPSVFIFPPSDEQLKSGTASVVCLLNNFYPREAKVQWKVDNALQSGNSQESVTEQDSKDSTYSLSSTLTLSKADYEKHKVYACEVTHQGLSSPVTKSFNRGEC | 0.23 fold |  |  |  |  |
| MS1032LO19-SG1080 (antibody, name in EU numbering, tied to rows r18/r36 by row order only; also called MS103240H795-SG1080) heavy: QVQLVESGGGLVQPGGSLRLSCAVSGIDLSHDDISWVRQAPGKGLEWVSIISYAGSTYYASWAKGRLTISKDTSKNQVVLTMTNMDPVDTATYYCARGVPAYSHGGDLWGQGTLVTVSSASTKGPSVFPLAPSSKSTSGGTAALGCLVKDYFPEPVTVSWNSGALTSGVHTFPAVLQSSGLYSLSSVVTVPSSSLGTQTYICNVNHKPSNTKVDKKVEPKSCDKTHTCPPCPAPELLNGPSVFLFPPKPKDTLMISRTPEVTCVVVDVSDEDPEVKFNWYVDGVEVHNAKTKPREELYNSTYRVVSVLTVLHRDWLNGKEYKCKVSNTALPKPIEKTISKAKGQRREPQVYTLPPSREEMTKNQVSLTCLVKGFYPSDIAVEWESNGQPENNYKTTPPVLDSDGSFFLYSKLTVDKSRWQQGNVFSCSVMHEALHAHYTRKELSLSP light: DIVMTQSPATLSLSPGERATLSCTTSQSVYHENWLSWFQQKPGQPPKLLIYWASTLAYGVPSRFSGSGSGTDFTLTISSLQPEDAATYYCAGGYGGGRYAFGQGTKVEIKRTVAAPSVFIFPPSDEQLKSGTASVVCLLNNFYPREAKVQWKVDNALQSGNSQESVTEQDSKDSTYSLSSTLTLSKADYEKHKVYACEVTHQGLSSPVTKSFNRGEC |  | 0.18 fold | 2.5 fold |  |  |
| MS1032LO06-SG1033 (antibody, human IgG1, kappa, name in EU numbering, tied to rows r11/r29 by row order only; also called MS103205H795-SG1033; copies: 2 + 2) heavy: QVTLKESGPVLVKPTETLTLTCTVSGIDLSHDDISWVRQAPGKGLEWVGIISYAGSTYYASWAKGRLTISKDTSKNQVVLTMTNMDPVDTATYYCARGVPAYSHGGDLWGQGTLVTVSSASTKGPSVFPLAPSSKSTSGGTAALGCLVKDYFPEPVTVSWNSGALTSGVHTFPAVLQSSGLYSLSSVVTVPSSSLGTQTYICNVNHKPSNTKVDKKVEPKSCDKTHTCPPCPAPELLNGPSVFLFPPKPKDTLMISRTPEVTCVVVDVSDEDPEVKFNWYVDGVEVHNAKTKPREEQYNSTYRVVSVLTVLHQDWLNGKEYKCKVSNKALPKPIEKTISKAKGQPREPQVYTLPPSREEMTKNQVSLTCLVKGFYPSDIAVEWESNGQPENNYKTTPPVLDSDGSFFLYSKLTVDKSRWQQGNVFSCSVMHEALHAHYTQKSLSLSP light: DIVMTQSPATLSLSPGERATLSCTSSQSVYHANWLSWFQQKPGQPPKLLIYWASTLAYGVPSRFSGSGSGTDFTLTISSLQPEDAATYYCAGGYGGGRYAFGQGTKVEIKRTVAAPSVFIFPPSDEQLKSGTASVVCLLNNFYPREAKVQWKVDNALQSGNSQESVTEQDSKDSTYSLSSTLTLSKADYEKHKVYACEVTHQGLSSPVTKSFNRGEC |  | 0.06 fold | 0.5 fold | 1 fold |  |
| MS1032LO06-SG1034 (antibody, human IgG1, kappa, name in EU numbering, tied to rows r12/r30 by row order only; also called MS103205H795-SG1034; copies: 2 + 2) heavy: QVTLKESGPVLVKPTETLTLTCTVSGIDLSHDDISWVRQAPGKGLEWVGIISYAGSTYYASWAKGRLTISKDTSKNQVVLTMTNMDPVDTATYYCARGVPAYSHGGDLWGQGTLVTVSSASTKGPSVFPLAPSSKSTSGGTAALGCLVKDYFPEPVTVSWNSGALTSGVHTFPAVLQSSGLYSLSSVVTVPSSSLGTQTYICNVNHKPSNTKVDKKVEPKSCDKTHTCPPCPAPELLTGPSVFLFPPKPKDTLMISRTPEVTCVVVDVSDEDPEVKFNWYVDGVEVHNAKTKPREEQYNSTYRVVSVLTVLHRDWLNGKEYKCKVSNKALPKPIEKTISKAKGQPREPQVYTLPPSREEMTKNQVSLTCLVKGFYPSDIAVEWESNGQPENNYKTTPPVLDSDGSFFLYSKLTVKKSRWQQGNVFSCSVMHEALHAHYTQKSLSLSP light: DIVMTQSPATLSLSPGERATLSCTSSQSVYHANWLSWFQQKPGQPPKLLIYWASTLAYGVPSRFSGSGSGTDFTLTISSLQPEDAATYYCAGGYGGGRYAFGQGTKVEIKRTVAAPSVFIFPPSDEQLKSGTASVVCLLNNFYPREAKVQWKVDNALQSGNSQESVTEQDSKDSTYSLSSTLTLSKADYEKHKVYACEVTHQGLSSPVTKSFNRGEC |  | 0.11 fold | 2.7 fold | 1 fold |  |
| M103205H795-MY212/M103202L889-SK1 (antibody, human IgG1, kappa, name in EU numbering, Fc variant of MS1032LO06-SG1; positions in EU numbering) heavy: QVTLKESGPVLVKPTETLTLTCTVSGIDLSHDDISWVRQAPGKGLEWVGIISYAGSTYYASWAKGRLTISKDTSKNQVVLTMTNMDPVDTATYYCARGVPAYSHGGDLWGQGTLVTVSSASTKGPSVFPLAPSSKSTSGGTAALGCLVKDYFPEPVTVSWNSGALTSGVHTFPAVLQSSGLYSLSSVVTVPSSSLGTQTYICNVNHKPSNTKVDKKVEPKSCDKTHTCPPCPAPELLNGPVVFLFPPKPKDTLMISRTPEVTCVVVDVSDEDPEVKFNWYVDGVEVHNAKTKPREELYNSTYRVVSVLTVLHQDWLNGKEYKCKVSNTALPKPIEKTISKAKGQPREPQVYTLPPSREEMTKNQVSLTCLVKGFYPSDIAVEWESNGQPENNYKTTPPVLDSDGSFFLYSKLTVDKSRWQQGNVFSCSVMHEALHNHYTQKSLSLSP light: DIVMTQSPATLSLSPGERATLSCTSSQSVYHANWLSWFQQKPGQPPKLLIYWASTLAYGVPSRFSGSGSGTDFTLTISSLQPEDAATYYCAGGYGGGRYAFGQGTKVEIKRTVAAPSVFIFPPSDEQLKSGTASVVCLLNNFYPREAKVQWKVDNALQSGNSQESVTEQDSKDSTYSLSSTLTLSKADYEKHKVYACEVTHQGLSSPVTKSFNRGEC |  |  |  |  | Kd [5]: 2.6 µM; Kd [6]: 0.57 µM; Kd [7]: 2.9 µM |
| M103205H795-MY538/M103202L889-SK1 (antibody, human IgG1, kappa, name in EU numbering, copies: 2 + 2) heavy: QVTLKESGPVLVKPTETLTLTCTVSGIDLSHDDISWVRQAPGKGLEWVGIISYAGSTYYASWAKGRLTISKDTSKNQVVLTMTNMDPVDTATYYCARGVPAYSHGGDLWGQGTLVTVSSASTKGPSVFPLAPSSKSTSGGTAALGCLVKDYFPEPVTVSWNSGALTSGVHTFPAVLQSSGLYSLSSVVTVPSSSLGTQTYICNVNHKPSNTKVDKKVEPKSCDKTHTCPPCPGPEWLTGPSVFLFPPKPKDTLMISRTPEVTCVVVDVSDEDPEVKFNWYVDGVEVHNAKTKPREELYNSTYRVVSVLTVLHQDWLNGKEYKCKVSNKALPKPIEKTISKAKGQPREPQVYTLPPSREEMTKNQVSLTCLVKGFYPSDIAVEWESNGQPENNYKTTPPVLDSDGSFFLYSKLTVDKSRWQQGNVFSCSVMHEALHNHYTQKSLSLSP light: DIVMTQSPATLSLSPGERATLSCTSSQSVYHANWLSWFQQKPGQPPKLLIYWASTLAYGVPSRFSGSGSGTDFTLTISSLQPEDAATYYCAGGYGGGRYAFGQGTKVEIKRTVAAPSVFIFPPSDEQLKSGTASVVCLLNNFYPREAKVQWKVDNALQSGNSQESVTEQDSKDSTYSLSSTLTLSKADYEKHKVYACEVTHQGLSSPVTKSFNRGEC | 0.25 fold |  |  |  |  |
